The nature of this series: soluble on expression in E. coli; label from the status in PepcDB or PDB records.
As to “MDGNQYEAIFLNYFRGIFPNADNLNVKCVKRMSEQQMKTTISRHGMRCTVLNGKDKISSYTVKKIVETPGKREYYGVRDIFAFKLLDMMGVGPKVHFVSNGEVGDDVGLFIVTEDD”, the “soluble on expression in E. coli” value was “not soluble”.

On to “MAELLPLSPVPLYTQLKELLRERILDGTYPSHSRMPSESELGKAFDVSRITVRQALGDLQKEGLIFKIHGKGTFVAKPKAFQNVSTLQGLGESMTQMGYEVINRLRSFRHVPANALVAARLQVEEGSLVTEIRRVRLINREPVSLELTWLPKAVGEKLEKADLVTRDIFLLLENDCGIALGHADLAIDAVLADSDLTQALDVEEGSPIMRIERLTHAADGTPLDFEHLYYRGDAFQYRLRIDRQKGGKA”, for which the “soluble on expression in E. coli” value is “not soluble”.

Take “NKSDAAAKQIKKLEEDFDGRIGVFAIDTGSGNTFGYRSDERFPLCSSFKGFLAAAVLERVQQKKLDINQKVKYESRDLEYHSPITTKYKGSGMTLGDMASAALQYSDNGATNIIMERFLGGPEGMTKFMRSIGDNEFRLDRWELELNTAIPGDKRDTSTPKAVANSLNKLALGNVLNAKVKAIYQNWLKGNTTGDARIRASVPADWVVGDKTGSCGAYGTANDYAVIWPKNRAPLIVSIYTTRKSKDDKHSDKTIAEASRIAIQAID”: the “soluble on expression in E. coli” value is recorded as “soluble”.

Regarding “MGSDKIHHHHHHMKVAKFGGSSLASASQIKKVFDIVQADKQRKFIVVSAPGKRSGADTKVTDALIAYYKAYKSADEKGIHYYQNWIIERFREIYDELGLKSPVINQIAENINHLAQLDLDNVFTYDTFLAAGENNNAKLVADFFNHSGLPSRYVHPSDAGIMVSSDPGNARLLGGAYEHIKYLNELEETLIIPGFFGITKEGEVCTFSRGGSDITGSIIAAGVRAELYENFTDVNGIFAAHPGIVKNPAYISELTYREMRELAYSGFSVLHDEALVPAYRAHVPLVIKNTNNPDHPGTKIVVQRETKGSPVVGIASSSAFSSLYVSKYLMNREVGFGRKVLSVLENLGVRFEHMPTGIDDMSIIIRSRYLTQPISKALISNLTESLHPDEVYIDRDFSIITIVGEDMKEHVGVTARATAALSKQGISIAMLSQGSSEVSVMFIVKEKYEKEALKAIYSAFFD”, the “soluble on expression in E. coli” value is on record as “not soluble”.

Take “MMSTSIPDVAVHDSPAIAAPLRWVGMDGIVVPVQLTTADGGQHVIGRARAQIDLPAMGVKGIHMSRLYRLLDTYAVEPLTPVGICGLLSAMVNSHADCASTAARVDWYFDWLRRVPALVSNDLSGWRGYPVWLRAEYSAGHVQFWLCVEVAYSSTCPCSAALARQMLADAFLQEHVEVSALSPETVADWLRSNGSYATPHSQRSLARIEVALTEQAVELGLPALVDCAERILSTPVQAAVRRVDEQAFARLNGANLMYVEDATRRLQHGLAIHYSAFRVHVRHLESLHPNDAVASTADE”: the “soluble on expression in E. coli” value is “not soluble”.

Turning to “WVQPITAQKPSLTLWLDDKMFTGLINTGADVTIIKLEDWPPNWPITDTLTNLRGIGQSNNPKQSSKYLTWRDKENNSGLIKPFVIPNLPVNLWGRDLLSQMKIMMAS”, the “soluble on expression in E. coli” value is listed as “soluble”.

Consider “MSLEDYILKVEELNYNYSDGTHALKGINMNIKRGEVTAILGGNGVGKSTLFQNFNGILKPSSGRILFDNKPIDYSRKGIMKLRESIGIVFQDPDNQLFSASVYQDVSFGAVNMKLPEDEIRKRVDNALKRTGIEHLKDKPTHCLSFGQKKRVAIAGVLVMEPKVLILDEPTAGLDPMGVSEIMKLLVEMQKELGITIIIATHDIDIVPLYCDNVFVMKEGRVILQGNPKEVFAEKEVIRKVNLRLPRIGHLMEILKEKDGFVFDELDLTIGQARKTINSWKNKIFNEGHHHHHH”, for which the “soluble on expression in E. coli” value is recorded as “soluble”.

As to “MGSDKIHHHHHHMKLRILSDLHIEHAMPQAVPACDADIVILAGDIANGRDGIDWAARTFGQPLIYVPGNHEYYEGNVDAVDRLMADAAATHPGVHLLNGAVAEFSGASGRVRVLGTTWWTDYCLFGTDRREASMQACSAVMLDHRLIELNGDDGHLRHFSPEDALARHHIASAWLAGQLALPFDGKTVVVTHHGPDLGSLDPRYSHDLVSGGFLSRRPDLVAQADLWIHGHTHTSFDYCIDTSRVVCNPRGYVSRRTGELENSRFDWCCVVEI”, the “soluble on expression in E. coli” value was “not soluble”.

As for “MTTNRETVLSMAKRKRSVVAINASGWRSNGEVMGLQIKDGVLYKDYDAAGYTGAEACVFFDDGTMKVYGNREVDADILISKGARNSFAFGIWLVKDSKPRTAQMTTWADLNVKHPRQAIGQRSDGTLVIITVDGRSLRSSGITAYDMPSLFLSEGCINAFLLDGGGSSQTAVEGKYINNISDGIERAVVDTLTISYPDDLEHHHHHH”, the “soluble on expression in E. coli” value is recorded as “not soluble”.

In the case of “GFKCGIVGLPNVGKSTLFNALTKAGIEAANFPFCTIEPNTGVVPMPDPRLDQLAEIVKPQRTLPTTMEFVDIAGLVKGASKGEGLGNQFLTNIRETEAIGHVVRCFENDNIIHVSGKVNPADDIEVINTELALADLDTCERAIHRVQKKAKGGDKDAKAELAVLEKCLPQLENAGMLRALDLSAEEKAAIRYLSFLTLKPTMYIANVNEDGFENNPYLDQVREIAAKEGSVVVPVCAAVEADIAELDDEERDEFMQELGLEEPGLNRVIRAGYKLLNLQTYFTAGVKEVRAWTIPVGATAPQAAGKIHTDFEKGFIRAQTISFEDFITYKGEQGAKEAGKMRAEGKDYIVKDGDVMNFLFNV”, the “soluble on expression in E. coli” value is on record as “not soluble”.

“MKFDVIIVGAGPGGMFAAYKLAGKLNTAIFEMGRDISKRKCPSDLSESYCTKCNPCNITSGVGGAGGLSDGKLNYVHPEYPSSFSVGGDFDFLDPNYLIEKMNEVDEIFLKHGAPDELYGDDLEKIEDFLKRANAAGIEFVPLRQRHVGSDELPKVVKSIEDKLKKEGVKIYTRKTVVDIDPERKVVRTEKGEEFGYDYLIIAVGRSGASWLEKWARDYNLEVAENSKAIDVGVRVEVPASIMDDITSAIYDPKLRVITKRHDDYMRTFCTCPRGWVIREDYGDFCLVNGHSKAKEKSSNTNFALLGHYEFTEPFDEPNEWGRDLARITTKLGGGNPIVQRLKDLRLGRRSTESRIKNNRLVQPTLKTAIPGDISLAYPGRAIDDILDALERLDKVIPGVADDSTLLYAPEVKFYSLKLKVDEWMKTNIPYIYAIGDGAGVSRGIVGAAVTGLIAAEGILRERGMELEHHHHHH”: the “soluble on expression in E. coli” value is “soluble”.

As to “GMATYNYPEFGAGLWHFANYIDRYAVDGYGPALSTIDQINAAKEVGELSYVDLPYPFTPGVTLSEVKDALKDAGLKAIGITPEIYLQKWSRGAFTNPDPAARAAAFELMHESAGIVRELGANYVKVWPGQDGWDYPFQVSHKNLWKLAVDGMRDLAGANPDVKFAIEYKPREPRVKMTWDSAARTLLGIEDIGLDNVGVLLDFGHALYGGESPADSAQLIIDRGRLFGMDVNDNLRGWDDDLVVGTVHMTEIFEFFYVLKINNWQGVWQLDQFPFRENHVEAAQLSIRFLKHIYRALDKLDIPALQAAQEAQNPLQAQRIVQDALLSSITVSE”, the “soluble on expression in E. coli” value is on record as “soluble”.

With “ARAEQFTTSLLSIISNNNLLAKATSESIMGAAMKAAVLNLPIEPSLGFAYVVPYNRNYKDGNRWITVNEAQFQIGYRGLIQLAQRSGQVRNIEHGIIYEEEFLGYDKIRGQLKLTGDYVDSGVVKGYFASLELISGFYKMIFWPKEKVYEHAKKYSKTFDKKTGDFKPGTPWATEFDPMAIKTLLKELLSKYAPLSVEMQDALEADNADSTIVIPKDVTPQETNSLDDLIGTQ”, the “soluble on expression in E. coli” value is listed as “not soluble”.

Consider “MATVAFQTLGCKVNHYETEAIWQLFKGEGYEKVDFEQMADVYVINTCTVTNTGDKKSRQVIRRAIRKNPDAVICVTGCYAQTSPAEVMAIPGVDIVVGTQDRKKMLEYIEQYKKERQPINGVGNIMKSRVYEELDVPAFTDRTRASLKIQEGCNNFCTFCIIPWARGLMRSRDPKEVIKQAEQLVQAGYKEIVLTGIHTGGYGEDLKDYSLARLLEDLEQVNGLKRIRISSIEASQLTDEVIEVIDRSTKVVRHLHIPLQSGSDTVLKRMRRKYTMAFFAERLERLREALPGLAVTSDVIVGFPGETEAEFQETYDFIAKHKFSELHVFPYSKRTGTPAARMEDQVNEDVKNERVHRLIQLSDQLAKEYASQFEGEVLEMIPEERDKEEPNSGLYVGYTDNYLKVKIPATDEMIGKLVKVKITKAGYPYNEGEFVRVLDEEPQAVAHGLEHHHHHH”, for which the “soluble on expression in E. coli” value is given as “soluble”.

“METRTYAIGVEATMDVIGGKWKPIILCNLRHGAMRPSDLKRGITGISQKMLTQQLRELEEDNIIERKVYNQVPPKVEYYLSDYGQSLSAVLDNLCNWGESHVAHLQEQGQEIYLKCED”: the “soluble on expression in E. coli” value was “not soluble”.

Consider “MNSRIPEDLIERAHRGKTTKEDALLLLEVPPFELFRFADELRDLAAGDTVTYVVNRNINFTSRCTGSCGFCAFRTDDGKVLSIEEIMEKVREAEKANATEVCIQGGLLPDVGLDFYQGIVEAIKAEFPEMHVHSFSPMEVYHASRISEIPVKESLRRLKRSGLDTMPGTAAEILSDRVRKIICPAKLNTAEWIEVVTQAHAAGIPTTATMMYGHVETPEERINHMLTIREIQKETGGITEFVPLPFMPYNNPVGEKMIKEGRYATPGLEDLKVYAVSRILFHGHVDNIQASWVKLGKKFAQFSLHCGVNDLGGTLMEESISRSAGACHGEMITVDELEWMIHGAGRIPKERTTLYREAHELASRNSRKIAGCGAFE”, for which the “soluble on expression in E. coli” value is reported as “not soluble”.

On to “AAWLQRKQFVSAGQEVAARLNTLGAELTQSRNDMREALALAQAQSGKVAELEGKVREAQSQYSALQQALQNLNDGASDEMLANDIERLITIASQQLRLAGNVSNAIVALETAQARLARADRPRFASLQQSINGDLDRLRAVGVVDIAAQSARIDRLVALVGRAPLLVPDAAAPGVTAVPQANEAVPASVDPGADLPADAAWWQRWQAEIASWPGRAGSALAHELGDLIRVQRVDQPTALLLSPEQAGQLRSTLRQRLLTAQLSMLMRQPAVWKSELDAVAATLAQYFDGKAPDTVAALALARELGQVEIAVRVPDVADSLNGIAALRAAGFNADG”, for which the “soluble on expression in E. coli” value was “not soluble”.

In the case of “MVSAPASASSSPASSSFQSFFWQAAARPRAEPKRQALKRITLMTTDKTSPYEIHDDRFRHLIVGNAELEELYSGCRWAEGPVWFADLNCLLFSDIPNERMLRWVPDGGISVFRQPSNFTNGNTRDRQGRLVSCEHGGRRVTRTEVDGSITVLADSYGGKRLNSPNDVVVKSDGSVWFTDPTYGILSDYEGYKAEPEQKTRNVYRLDPATGKIDIAIDDFVQPNGLAFSPDETKLYVADSSYSHDISRPRHIRVFDVVDGVRLANGREFCNLDNGLPDGFRLDTAGNLWTSAGDGVHCFAPDGRLIGKIKVPQTVANLTFGGPKKNRLFITATKSLYSVYVAATGAQTPLEHHHHHH”, the “soluble on expression in E. coli” value was “soluble”.

As for “MGSDKIHHHHHHMKDINMTVEKGQVAGILGITGCGKTTLLKLLYNGLKNGDRRLIWKGGNYVDAIGRARPNAVYVPQSAPDSLDPVYSVIDQIRKVMQARSVDFDQDLLEKIMSEIGRSPDMLKKKPQALSQGERHIAVVIMALMIRPSLIMMDEPTTSLDAIETLDLLGIIRRFSVQYGISFIISGTSPEVITYASDFVHVMYCGTFVESSQTEDLISNPLHPYTRMIMKMRPSIRTKDLVLDRFIYDCNDYGCPFLNYCEYARDECRSQVSIRRYNDRAGQVRSLAEIMLSAKHVYKTYLEKVSIFKWHENKVIEDFSYDFLSGTRYGIIGVSGSGKTTLASILAGYDRPDSGSIIYSKHPSDGSSIRVRNVFQDTYRFLNPVNTLEWYEKNISAISPDPKLIDKILDAVGLPLERFGSLYIDQLSGGQRQRLAFAMVLSQLPDVLILDEPFSMIDPPNAMVLFSLIRKYLDKSTVIYIDHNIDRVAYLCDHIIAFDKGRIVEEDDVKKIFETQKTEYVEKLIWASEKISSRMKRQP”, the “soluble on expression in E. coli” value is recorded as “not soluble”.

On to “MGSDKIHHHHHHMNSMDATAAHHTSPNATLVYDIRHSRYLNITGRCTLRCGFCPKQQGSRQIHQYQLALDKQPGVDDLLPLLGDVDTFDEYVFCGYGEPTLNLPTLLGVARAIKSQGGRIRVNTDGLGNLFHKRNILPELADCVDALSVSLNAQDEFTYLKHCQPRLKGSWQAVNDFIRMAPAYIKRVEVSAIDGLPGVDIPACRALVEAAGCTFKHRKLDIMG”, for which the “soluble on expression in E. coli” value was “not soluble”.

These data come from the DeepSol protein solubility set.
